Percent of total radiolabeled proPC2 coimmunoprecipitated data for one substance are collected here from publication PMC2141705.

The assay deals with calnexin (mouse (endogenous in AtT-20)) (UniProt P35564). Description: co-IP.
UniProt P35564, sequence (P35564 21-591): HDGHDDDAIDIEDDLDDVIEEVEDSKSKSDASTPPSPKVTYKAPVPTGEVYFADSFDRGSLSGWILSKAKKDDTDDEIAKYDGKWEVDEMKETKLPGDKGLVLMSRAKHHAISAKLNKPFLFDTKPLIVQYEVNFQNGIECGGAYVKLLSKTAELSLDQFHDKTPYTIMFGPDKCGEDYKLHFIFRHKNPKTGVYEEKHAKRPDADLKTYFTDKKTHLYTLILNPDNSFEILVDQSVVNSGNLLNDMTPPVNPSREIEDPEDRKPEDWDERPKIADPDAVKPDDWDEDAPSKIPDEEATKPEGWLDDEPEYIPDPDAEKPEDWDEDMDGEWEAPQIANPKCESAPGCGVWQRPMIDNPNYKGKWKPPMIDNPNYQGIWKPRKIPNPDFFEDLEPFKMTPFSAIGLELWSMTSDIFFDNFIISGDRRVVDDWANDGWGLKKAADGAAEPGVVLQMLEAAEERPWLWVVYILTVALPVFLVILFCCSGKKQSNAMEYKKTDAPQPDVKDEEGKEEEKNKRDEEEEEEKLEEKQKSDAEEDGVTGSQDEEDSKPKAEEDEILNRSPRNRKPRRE

For “proPC2 (proenzyme form of prohormone convertase 2) (from UniProt P28841 25-637)”, the percent of total radiolabeled proPC2 coimmunoprecipitated is 5%.
